Reference: patent US12180286B2, “Anti-peripheral lymph node addressin antibodies and uses thereof” (The Brigham and Women's Hospital, Inc., priority 2019, dated 2024)

How the values were obtained:
[1] = system: 4T1 breast tumor cells; assay: 4T1 breast tumor growth model; format: in vivo, BALB/c-WT mice; details: equal to 160 ng free taxol every two days; n=12
Experimental: Mice were anesthetized with isoflurane and underwent subcutaneous injection with 4T1 breast tumor cells in the mammary glands (1×10^5 cells per mouse). Starting at 9 days post-implantation, free Taxol or MHA112-Taxol were administered every other day intraperitoneally for 24 days. Tumor growth was monitored two times per week by digital caliper.

[2] = system: 4T1 tumor-draining lymph nodes (TDLNs); assay: Immunostaining of 4T1 tumor-draining lymph nodes (TDLNs); format: in vivo, mice; details: 4T1 TDLNs, fluorescence micrographs
Source text: Thus, the effect of the LN delivery of MHA112 in the tumor population in the LN was investigated. The extent of MHA112's ability to restore the overall structure of LN was also investigated. […] 4T1 tumor-draining lymph nodes (TDLNs) were cut by cryo-sectioning and stained with anti-HEV (sc-19602, SCBT), anti-LYVE1 (ab14917, Abcam), anti-Pan-Cytokeratin (C2931, Sigma), anti-collagen I (ab34710, Abcam), anti-collagen IV (ab6586, Abcam), and anti-laminin (ab11575, Abcam). […] The stained tissue sections were visualized using an EVOS™ FL Auto 2 Imaging System. […] The structure changes of TDLNs was also examined.

[3] = system: 4T1 tumor cell lines; assay: 4T1 breast tumor liver portal vein metastasis model, survival; format: in vivo, mouse; details: 160 ng every other day intraperitoneally for 20 days, starting 4 hours post-implantation
Experimental: To investigate the effect of MHA112-Taxol on tumor metastasis, 4T1 tumor cell lines were gently injected into the portal vein (1×10^4 cells per mouse) of mouse liver. Starting 4 hours post-implantation, 160 ng of free Taxol or MHA112-taxol were administered every other day intraperitoneally for 20 days. Survival was monitored every day.
(§1) Glutaric anhydride (100 mg, Sigma-Aldrich) and taxol (33 mg, LC laboratories) were prepared in a 4 mL vial dried under high vacuum for 24 hours and dissolved in 1 mL of pyridine. The solution was stirred at room temperature under Ar atmosphere for 2 hours. The reaction was quenched by removal of solvent under high vacuum for 2 hours. 2′-Glutaryl taxol was purified by a reversed phase HPLC (Phenomenex Luna 5 μm C18 250×10.0 mm, flow rate 2 mL/min, UV 250 nm detection) with a gradient solvent system (15% to 75% ACN/H2O with 0.1% formic acid for 40 minutes). 2′-glutaryl taxol (0.2 mg) dissolved in DMSO (Thermo Scientific Fisher) was activated with 1-ethyl-3-(3-dimethylaminopropyl)carbodiimide hydrochloride (EDC, 0.4 mg, Sigma-Aldrich) and Sulfo-NHS (N-hydroxysulfosuccinimide) (1.1 mg, Thermo Scientific Fisher) for 15 minutes at room temperature in MES buffer (pH 6.0, Thermo Scientific Fisher) (final solution; ˜1 mL in 10% DMSO). The EDC was quenched by 2-mercaptoethanol (1.4 μL, Sigma-Aldrich) for 10 min. […]

[4] = system: Panc02 pancreas tumor cells; assay: Panc02 pancreas tumor model, survival; format: in vivo, mice; details: 160 ng every other day intraperitoneally for 20 days, starting 4 hours post-implantation
Experimental: Mice were anesthetized with isoflurane, and Panc02 pancreas tumor cells were gently injected in pancreas of mice. Two million cells (2×10^6 cells) were injected per mouse for Panc02 tumor model. Starting 4 hours post-implantation, 160 ng of free Taxol or MHA112-taxol were administered every other day intraperitoneally for 20 days. Survival was monitored every day.
as §1

[5] = system: high endothelial venules (HEVs) of mice lymph nodes (LNs); assay: Immunofluorescence staining of HEVs in mice lymph node sections; format: binding; details: hybridoma supernatant
Source text: (§2) Two of GlcNAc6ST1/2/4 triple knock-out (KO) mice, which lack the peripheral lymph node vascular addressin (PNAd), were immunized with Chinese hamster ovary (CHO) cell lines expressing CD34 decorated with sialyl Lewis^X (sLeX)-type glycans. MHA112 single hybridoma clone was identified by HEV immunofluorescence staining. The supernatant of MHA112 hybridoma culture was collected and used to stain mice lymph nodes (LNs) and human tonsil section.
(§3) Two of GlcNAc6ST1/2/4 triple KO mice, which lack the PNAd, were immunized with CHO cell lines expressing CD34 decorated with sLeX-type glycans. After the 3rd immunization, mice were sacrificed for hybridoma. Around 500 single clones were screened by HEV staining. Monoclonal antibody MHA112 against mice and human HEV was identified.
(§4) Fresh LNs were embedded in tissue-freezing medium. Cryostat sections (8 μm thick) were cut for imaging by fluorescence confocal microscopy. MHA112 was used for tissue staining as primary antibody. Alexa Fluor 488-conjugated anti-mouse IgM was used as secondary antibody. DAPI was used to stain the cell nuclei.

[6] = system: high endothelial venules (HEVs) of human tonsil; assay: Immunofluorescence staining of HEVs in human tonsil section; format: binding; details: hybridoma supernatant
Source text: as §2, §3, §4

[7] = system: T cells homing to LNs; assay: Blocking of labeled T cell homing to LNs (flow cytometry); format: in vivo, C57BL/6 mice; details: 200 μg i.p. 2 hours before T cell injection, 19 hours after transfer
Experimental: To test whether MHA112 mAb can block T cells homing to LNs in vivo, T cells were labeled with fluorescein isothiocyanate (FITC) florescence dye and transferred into naïve mice, and their distribution assessed 19 hours later. MHA112 (anti-HEVs) reduced the number of transferred T cells that entered Axillary (Axi), Inguinal (Ing) and Brachial (Bra) LN by over 25% (FIG. 4). […] Labeled T cells that entered spleen were not changed in three groups (FIG. 4).
Spleens were harvested from three C57BL/6 mice. Single cell suspensions were prepared, and cells were positively enriched for T cells with MACS reagents and columns (Miltenyi Biotech, Bergisch Gladbach, Germany) according to the manufacturer's instructions. For injection, T cells were labeled with CellTracker Green (Thermo Fisher) and resuspended in sterile saline, and 5 million T cells were injected in 100 μl each mouse. Blocking antibodies MHA112 and MECA79 were administered intraperitoneally (i.p.) at 200 μg in 200 μl per mouse 2 hours before T cell injection. 19 hours after transfer, mice were euthanized and LNs were processed for flow cytometry.

[8] = system: CHO cells expressing PNAd (CHO-PNAd); assay: Cell-based ELISA binding affinity
Experimental: To compare the affinity of MHA112 with MECA79, cell-based ELISA was performed. CHO cells expressing PNAd (CHO-PNAd) (2×10^4) were coated onto 96-well plates and incubated overnight at 37° C. After five washes with phosphate buffered saline (PBS), the plates were fixed with 1% paraformaldehyde (PFA) and blocked with 3% bovine serum albumin (BSA). MECA79 and MHA112 were serially diluted from 1 ng/ml to 300 μg/ml. After five washes in PBST, horseradish peroxidase-(HRP-)conjugated goat anti-mouse and anti-rat secondary antibodies were added at a 1:10,000 dilution and incubated for 1 hour at room temperature. Binding was detected with the addition of TMB (3,3′,5,5′-tetramethylbenzidine) substrate, and the reaction was stopped by adding TMB Stop Solution (N600, Thermo Scientific). Absorbance signals were read at 450 nm.

CC(=O)O[C@H]1C(=O)[C@@]2(C)[C@H]([C@H](OC(=O)c3ccccc3)[C@]3(O)C[C@H](OC(=O)[C@H](O)[C@@H](NC(=O)c4ccccc4)c4ccccc4)C(C)=C1C3(C)C)[C@]1(OC(C)=O)CO[C@@H]1C[C@@H]2O [free Taxol, taxol]
growth of 4T1 mouse breast tumors versus control group treated with PBS [1]: significantly slower growth
expansion of HEVs and lymphatics (LYVE1) in TDLNs [2]: expanded
median survival time (MST) [3]: 37 days
median survival time (MST) [4]: 32 days

B1: MHA112: anti-PNAd monoclonal antibody, mouse IgM, VH SEQ ID NO:2 and VL SEQ ID NO:7 (antibody, V domains shown)
VH: QVQLKESGPGLVAPSQSLSITCTVSGFSLTSYGVDWVRQPPGKGLEWLGVIWGGGSTNYNSALMSRLSISKDNSKSQVFLKMNSLQTDDTAMYYCAKHSKGGYFDVWGTGTTVTVSS
VL: EIVLTQSPAITAASLGQKVTITCSASSSVSYMHWYQQKSGTSPKPWIYEISKLASGVPARFSGSGSGTSYSLTISSMEAEDAAIYYCQQWNYPLITFGAGTKLELK
modifications: mouse IgM constant regions; MHA112 Heavy chain; MHA112 Light chain
staining of HEVs structure [5]: stained
staining of HEVs structure [6]: stained
reduction of number of transferred T cells that entered Axillary, Inguinal and Brachial LN [7]: over 25%
reduction of number of T cells that entered mesenteric LNs ([7]; of PBS controls): around 12%
binding affinity higher than MECA79 [8]: 30%
Kd ([8]; fitting curves, absorbance 450 nm): 0.97 nM
